# Laboratory results from the supplement of paper PMC9112550, “Optimization of the antimicrobial peptide Bac7 by deep mutational scanning” (BMC Biology, 2022).
# Tested on: Escherichia coli TOP10
# Assay: shrunken log2 fold change of peptide-encoding DNA abundance (4.5 h post-induction vs induction); higher = less antimicrobial activity (less host growth inhibition)
# Conditions: time post-induction: 4.5 h; library: site-saturation at positions 5, 18, 19, 20
# 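Further: peptides expressed intracellularly from a pBAD plasmid library in pooled LB shake-flask culture, induced with 0.3% L-arabinose, DNA abundance read by NGS, three biological replicates, DESeq2 with apeglm shrinkage.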
row,Sequence,shrunken log2 fold change
1,RRIRCRPPRLPRPRPRPYAFPRP,-0.425
2,RRIRARPPRLPRPRPRPTEGPRP,0.941
3,RRIRARPPRLPRPRPRPSETPRP,0.176
4,RRIRCRPPRLPRPRPRPWRLPRP,0.0337
5,RRIRCRPPRLPRPRPRPRTFPRP,-0.24
6,RRIRYRPPRLPRPRPRPKMTPRP,-0.728
7,RRIRRRPPRLPRPRPRPGEDPRP,0.00579
8,RRIRNRPPRLPRPRPRPIPSPRP,0.0499
9,RRIRVRPPRLPRPRPRPCCSPRP,-0.192
10,RRIRIRPPRLPRPRPRPLNLPRP,-0.597
11,RRIRQRPPRLPRPRPRPMCFPRP,-0.352
12,RRIRVRPPRLPRPRPRPFPCPRP,-0.00113
13,RRIRCRPPRLPRPRPRPCTNPRP,-0.134
14,RRIRFRPPRLPRPRPRPPTLPRP,-0.0735
15,RRIRFRPPRLPRPRPRPHFNPRP,-0.692
16,RRIRIRPPRLPRPRPRPAYRPRP,-0.611
17,RRIRPRPPRLPRPRPRPAMHPRP,0.367
18,RRIRVRPPRLPRPRPRPPLIPRP,1.02
19,RRIRGRPPRLPRPRPRPWHFPRP,-0.0456
20,RRIRSRPPRLPRPRPRPYQHPRP,-0.934
21,RRIRLRPPRLPRPRPRPCDEPRP,-0.0824
22,RRIRPRPPRLPRPRPRPVLYPRP,-0.335
23,RRIRERPPRLPRPRPRPSNSPRP,-0.0251
24,RRIRPRPPRLPRPRPRPITMPRP,-0.238
25,RRIRFRPPRLPRPRPRPTLCPRP,0.107

row,Sequence,shrunken log2 fold change
1,RRIRNRPPRLPRPRPRPLILPRP,-0.303
2,RRIRQRPPRLPRPRPRPWLDPRP,0.19
3,RRIRFRPPRLPRPRPRPGLAPRP,0.344
4,RRIRKRPPRLPRPRPRPNDQPRP,-0.101
5,RRIRFRPPRLPRPRPRPHDAPRP,0.293
6,RRIRKRPPRLPRPRPRPQTGPRP,0.0141
7,RRIRIRPPRLPRPRPRPDTFPRP,-0.364
8,RRIRNRPPRLPRPRPRPQNMPRP,-0.233
9,RRIRIRPPRLPRPRPRPKYTPRP,-0.686
10,RRIRGRPPRLPRPRPRPMPRPRP,1.03
11,RRIRSRPPRLPRPRPRPWHEPRP,-0.103
12,RRIRKRPPRLPRPRPRPKLFPRP,0.379
13,RRIRQRPPRLPRPRPRPKQMPRP,0.114
14,RRIRIRPPRLPRPRPRPGHKPRP,-0.363
15,RRIRLRPPRLPRPRPRPPMNPRP,-0.114
16,RRIRDRPPRLPRPRPRPHEPPRP,0.211
17,RRIRVRPPRLPRPRPRPGMLPRP,-0.333
18,RRIRWRPPRLPRPRPRPLWGPRP,0.08
19,RRIRGRPPRLPRPRPRPKQPPRP,1.08
20,RRIRTRPPRLPRPRPRPCFMPRP,-0.153
21,RRIRNRPPRLPRPRPRPTPGPRP,0.312
22,RRIRKRPPRLPRPRPRPKLQPRP,0.423
23,RRIRARPPRLPRPRPRPIHLPRP,-0.633
24,RRIRNRPPRLPRPRPRPDEAPRP,0.27
25,RRIRNRPPRLPRPRPRPIFGPRP,-0.0237

row,Sequence,shrunken log2 fold change
1,RRIRFRPPRLPRPRPRPHWPPRP,0.251
2,RRIRRRPPRLPRPRPRPQRVPRP,0.155
3,RRIRLRPPRLPRPRPRPYTIPRP,-0.048
4,RRIRQRPPRLPRPRPRPMPVPRP,-0.00339
5,RRIRDRPPRLPRPRPRPCSDPRP,0.0293
6,RRIRCRPPRLPRPRPRPCLGPRP,-0.224
7,RRIRLRPPRLPRPRPRPDYVPRP,-0.432
8,RRIRPRPPRLPRPRPRPMWRPRP,-0.0622
9,RRIRNRPPRLPRPRPRPKAAPRP,3.06
10,RRIRHRPPRLPRPRPRPWCLPRP,-1.67
11,RRIRMRPPRLPRPRPRPMNKPRP,-0.0775
12,RRIRARPPRLPRPRPRPMVEPRP,0.0234
13,RRIRLRPPRLPRPRPRPHHAPRP,-0.058
14,RRIRTRPPRLPRPRPRPYHYPRP,-0.185
15,RRIRNRPPRLPRPRPRPSARPRP,0.256
16,RRIRPRPPRLPRPRPRPHTTPRP,0.0817
17,RRIRGRPPRLPRPRPRPWMVPRP,0.213
18,RRIRFRPPRLPRPRPRPQTTPRP,0.00489
19,RRIRKRPPRLPRPRPRPRYWPRP,0.173
20,RRIRTRPPRLPRPRPRPPWHPRP,0.118
21,RRIRFRPPRLPRPRPRPMMNPRP,-0.77
22,RRIRKRPPRLPRPRPRPWTMPRP,0.00233
23,RRIRGRPPRLPRPRPRPPHIPRP,0.551
24,RRIRLRPPRLPRPRPRPPGDPRP,0.834
25,RRIRFRPPRLPRPRPRPRDCPRP,2.96

row,Sequence,shrunken log2 fold change
1,RRIRFRPPRLPRPRPRPKDIPRP,-0.676
2,RRIRNRPPRLPRPRPRPPYDPRP,-0.561
3,RRIRIRPPRLPRPRPRPWDDPRP,-0.391
4,RRIRCRPPRLPRPRPRPCGMPRP,0.119
5,RRIRHRPPRLPRPRPRPQSRPRP,-0.0223
6,RRIRFRPPRLPRPRPRPILRPRP,-0.156
7,RRIRLRPPRLPRPRPRPSSLPRP,-0.39
8,RRIRIRPPRLPRPRPRPGYKPRP,-0.231
9,RRIRKRPPRLPRPRPRPRNAPRP,0.57
10,RRIRPRPPRLPRPRPRPKGVPRP,0.000119
11,RRIRDRPPRLPRPRPRPPARPRP,1.46
12,RRIRKRPPRLPRPRPRPLRDPRP,0.757
13,RRIRTRPPRLPRPRPRPHPHPRP,0.0583
14,RRIRIRPPRLPRPRPRPFIRPRP,-0.358
15,RRIRCRPPRLPRPRPRPTCEPRP,0.142
16,RRIRNRPPRLPRPRPRPFINPRP,-1.59
17,RRIRTRPPRLPRPRPRPYYLPRP,-1.28
18,RRIRFRPPRLPRPRPRPAYYPRP,-0.227
19,RRIRYRPPRLPRPRPRPDSTPRP,-0.112
20,RRIRIRPPRLPRPRPRPPFYPRP,-0.438
21,RRIRERPPRLPRPRPRPKFQPRP,-0.268
22,RRIRHRPPRLPRPRPRPLNVPRP,-0.588
23,RRIRERPPRLPRPRPRPGPKPRP,-0.00801
24,RRIRQRPPRLPRPRPRPWYMPRP,-0.237
25,RRIRFRPPRLPRPRPRPHAAPRP,0.062

row,Sequence,shrunken log2 fold change
1,RRIRDRPPRLPRPRPRPAVYPRP,-0.097
2,RRIRNRPPRLPRPRPRPPHEPRP,0.256
3,RRIRNRPPRLPRPRPRPMDAPRP,0.101
4,RRIRERPPRLPRPRPRPLSSPRP,0.00508
5,RRIRYRPPRLPRPRPRPWTEPRP,-0.0689
6,RRIRVRPPRLPRPRPRPYVRPRP,-0.492
7,RRIRARPPRLPRPRPRPMAEPRP,0.238
8,RRIRCRPPRLPRPRPRPGVNPRP,-0.584
9,RRIRLRPPRLPRPRPRPHSPPRP,-0.252
10,RRIRLRPPRLPRPRPRPECWPRP,0.587
11,RRIRARPPRLPRPRPRPVFHPRP,-0.253
12,RRIRGRPPRLPRPRPRPNKCPRP,0.139
13,RRIRTRPPRLPRPRPRPCGDPRP,0.176
14,RRIRKRPPRLPRPRPRPRGLPRP,0.41
15,RRIRQRPPRLPRPRPRPPVQPRP,0.301
16,RRIRMRPPRLPRPRPRPIPKPRP,0.0362
17,RRIRDRPPRLPRPRPRPWIGPRP,0.0362
18,RRIRQRPPRLPRPRPRPFEKPRP,-0.0519
19,RRIRTRPPRLPRPRPRPWDCPRP,-0.000687
20,RRIRLRPPRLPRPRPRPCSWPRP,-0.0168
21,RRIRHRPPRLPRPRPRPNRAPRP,-0.0865
22,RRIRARPPRLPRPRPRPKCEPRP,0.367
23,RRIRGRPPRLPRPRPRPPIGPRP,0.735
24,RRIRCRPPRLPRPRPRPWGTPRP,-0.0869
25,RRIRERPPRLPRPRPRPQDWPRP,-0.206

row,Sequence,shrunken log2 fold change
1,RRIRQRPPRLPRPRPRPRCIPRP,-0.188
2,RRIRCRPPRLPRPRPRPKINPRP,-0.645
3,RRIRQRPPRLPRPRPRPYASPRP,-0.00547
4,RRIRRRPPRLPRPRPRPYQCPRP,0.0675
5,RRIRFRPPRLPRPRPRPCCLPRP,-0.725
6,RRIRQRPPRLPRPRPRPQVAPRP,-0.156
7,RRIRFRPPRLPRPRPRPQKNPRP,0.16
8,RRIRKRPPRLPRPRPRPMNTPRP,-0.287
9,RRIRIRPPRLPRPRPRPLITPRP,-0.71
10,RRIRSRPPRLPRPRPRPLTYPRP,-0.132
11,RRIRTRPPRLPRPRPRPYTGPRP,-0.0567
12,RRIRDRPPRLPRPRPRPYKMPRP,-0.17
13,RRIRHRPPRLPRPRPRPQPRPRP,0.282
14,RRIRLRPPRLPRPRPRPSFSPRP,-0.365
15,RRIRSRPPRLPRPRPRPAIPPRP,-0.139
16,RRIRERPPRLPRPRPRPEVGPRP,0.0848
17,RRIRARPPRLPRPRPRPHRRPRP,0.212
18,RRIRNRPPRLPRPRPRPIMNPRP,-0.619
19,RRIRARPPRLPRPRPRPAINPRP,-0.00878
20,RRIRMRPPRLPRPRPRPWLTPRP,0.158
21,RRIRKRPPRLPRPRPRPCNMPRP,-0.0983
22,RRIRHRPPRLPRPRPRPKKDPRP,-0.494
23,RRIRWRPPRLPRPRPRPYGMPRP,-0.4
24,RRIRSRPPRLPRPRPRPRLEPRP,0.596
25,RRIRPRPPRLPRPRPRPLQYPRP,-0.478
